Molecular target: capsid triplex (heterotrimer of two mCP and one mC-BP) (human cytomegalovirus (HCMV) strain AD169) (UniProt P16728)
Assay: cryo-EM structure

tegument protein pp150 (from UniProt P08318 1-1048) (natural protein)
stoichiometry N (copies per triplex): 3
